This is an account of results in patent US6265551A, “Form of dipeptidylpeptidase IV (CD26) found in human serum, antibodies thereto, and uses thereof” (Dana-Farber Cancer Institute, Inc., priority 1996, dated 2001).

Substrate in this data set: NCC(=O)N1CCC[C@H]1C(=O)Nc1ccc([N+](=O)[O-])cc1
The experiment in a line: purified protein, by the assay type. The following applies: other: rsCD26; Lineweaver-Burke transformation; substrate at different concentrations; 20.0 °C.

Description: The DPPIV enzyme activities of the rsCD26 and serum DPPIV were analyzed by Michaelis-Menten kinetics by assessing kinetics of hydrolysis of substrate at different concentrations.
DPPIV activity: The primary substrate used for determining DPPIV activity in all assays was Gly-Pro-p-nitroanilide (Gly-Pro-pNA; Sigma), which is hydrolyzed by DPPIV to release pNA absorbing strongly at 405 nm. Kinetic assays were performed using varying amounts of substrate in order to obtain estimates of the Km and Vmax using standard Michaelis-Menten kinetics. For screening assays of DPPIV activity, 150 ml of substrate was used at 1 mg/ml (2 mM final concentration) in phosphate buffer (pH7.6, 100 mM) in 96 well flat-bottomed microtiter plates together with 10 ml of appropriately diluted sample. For samples obtained after elution from the s-Sepharose column, the pH was raised to pH7.6 by addition of 25 μl of 1M Tris-HCl, pH7.6 to the reaction mixture. One unit (U) of enzyme activity was defined as the amount of enzyme that cleaved 1 mmol of Gly-Pro-pNA/min at pH7.6 and 20° C. […] The pH optimum was determined substituting phosphate buffer (100 mM, pH4.5-pH9) in place of standard incubation buffer.

B1: recombinant soluble CD26 (rsCD26), full extracellular domain of human T cell membrane CD26/DPPIV, 105 kDa form, from transfected CHO cells (Homo sapiens) (protein)
chain: NKGTDDATADSRKTYTLTDYLKNTYRLKLYSLRWISDHEYLYKQENNILVFNAEYGNSSVFLENSTFDEFGHSINDYSISPDGQFILLEYNYVKQWRHSYTASYDIYDLNKRQLITEERIPNNTQWVTWSPVGHKLAYVWNNDIYVKIEPNLPSYRITWTGKEDIIYNGITDWVYEEEVFSAYSALWWSPNGTFLAYAQFNDTEVPLIEYSFYSDESLQYPKTVRVPYPKAGAVNPTVKFFVVNTDSLSSVTNATSIQITAPASMLIGDHYLCDVTWATQERISLQWLRRIQNYSVMDICDYDESSGRWNCLVARQHIEMSTTGWVGRFRPSEPHFTLDGNSFYKIISNEEGYRHICYFQIDKKDCTFITKGTWEVIGIEALTSDYLYYISNEYKGMPGGRNLYKIQLSDYTKVTCLSCELNPERCQYYSVSFSKEAKYYQLRCSGPGLPLYTLHSSVNDKGLRVLEDNSALDKMLQNVQMPSKKLDFIILNETKFWYQMILPPHFDKSKKYPLLLDVYAGPCSQKADTVFRLNWATYLASTENIIVASFDGRGSGYQGDKIMHAINRRLGTFEVEDQIEAARQFSKMGFVDNKRIAIWGWSYGGYVTSMVLGSGSGVFKCGIAVAPVSRWEYYDSVYTERYMGLPTPEDNLDHYRNSTVMSRAENFKQVEYLLIHGTADDNVHFQQSAQISKALVDVGVDFQAMWYTDEDHGIASSTAHQHIYTHMSHFIKQCFSLP
Take B1: the Km (as a rule, the concentration of substrate that gives half-maximal velocity) amounted to 280 µM.
